From article PMC3298681 (Molecular Cell, 2011)

Target: the molecule itself

B1: DgcB (CC1850), purified (enzyme, Caulobacter crescentus, UniProt Q9A776 1-353, looked up)
chain: MSDVETTLRGPEAYKIASRALELMERHQVWPTALNFELWTHYVADPNGALARELTRLISLGEPMTELVSEELAATFLPKARLNEQIRDAGDILSKELEAVSKAIQNAQKSNAAFGQELAGASKSLDTHTDVASIKAVVGSIAEATRRVHKENQSLEARLADSTAEVERLREHLEQVRRDATTDGLTNLANRKAFDDELDRACAEAEEGGTTICLAVLDIDHFKGFNDTWGHQTGDQVIRYVASVIGRVAAPPRFAARYGGEEFAMIFPREAASVVATTLEEIRVEVSSRMLKRRSTNEDLGAITVSSGFAERKPGESGHSVMERADAALYASKRGGRNRVTAAESMPGAANAA
stoichiometry N: 2
